Target: T1, hypoxia‐inducible factor 1‐alpha (human (endogenous in PLC5), UniProt Q16665 1-826)
T1 construct: HIF1α, endogenous protein of human HCC cells, immunoprecipitated or blotted with HIF1α antibodies; also called HIF1α
Assay: co-IP; cells treated with DMSO or SCT‐1015; immunoprecipitation with HIF1α antibodies, blot for PHD3; 400 μg whole‐cell extract, 4 μg antibody overnight at 4 °C, protein A/G magnetic beads
Conditions: partners not purified

T1 sequence (Q16665 whole entry): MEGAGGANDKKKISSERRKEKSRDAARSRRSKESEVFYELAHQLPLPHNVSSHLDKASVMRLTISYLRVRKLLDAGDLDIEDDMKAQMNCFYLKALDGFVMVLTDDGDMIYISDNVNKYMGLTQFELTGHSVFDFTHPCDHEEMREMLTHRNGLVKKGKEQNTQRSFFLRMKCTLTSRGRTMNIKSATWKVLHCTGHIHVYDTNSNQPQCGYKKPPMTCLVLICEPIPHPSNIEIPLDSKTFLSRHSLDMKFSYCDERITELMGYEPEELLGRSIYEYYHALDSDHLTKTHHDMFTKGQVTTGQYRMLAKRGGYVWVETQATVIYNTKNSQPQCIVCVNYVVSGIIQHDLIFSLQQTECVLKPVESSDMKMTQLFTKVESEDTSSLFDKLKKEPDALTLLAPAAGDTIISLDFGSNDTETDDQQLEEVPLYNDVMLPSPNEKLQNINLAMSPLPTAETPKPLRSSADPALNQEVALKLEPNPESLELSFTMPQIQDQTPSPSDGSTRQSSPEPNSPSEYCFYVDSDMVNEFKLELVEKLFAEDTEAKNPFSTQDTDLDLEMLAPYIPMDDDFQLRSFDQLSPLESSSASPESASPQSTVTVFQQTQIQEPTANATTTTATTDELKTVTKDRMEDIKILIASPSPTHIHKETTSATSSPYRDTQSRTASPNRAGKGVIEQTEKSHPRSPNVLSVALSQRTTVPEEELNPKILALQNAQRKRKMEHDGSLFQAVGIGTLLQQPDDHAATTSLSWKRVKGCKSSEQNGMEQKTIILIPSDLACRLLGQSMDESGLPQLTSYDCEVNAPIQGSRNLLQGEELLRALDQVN

- fold change of the ratio PHD3/HIF1α in the HIF1α immunoprecipitate, SCT‐1015 against DMSO: 1.6 fold
B1: prolyl hydroxylase 3 (enzyme, human (endogenous in HCC cells), UniProt Q9H6Z9 1-239, looked up)
chain: MPLGHIMRLDLEKIALEYIVPCLHEVGFCYLDNFLGEVVGDCVLERVKQLHCTGALRDGQLAGPRAGVSKRHLRGDQITWIGGNEEGCEAISFLLSLIDRLVLYCGSRLGKYYVKERSKAMVACYPGNGTGYVRHVDNPNGDGRCITCIYYLNKNWDAKLHGGILRIFPEGKSFIADVEPIFDRLLFFWSDRRNPHEVQPSYATRYAMTVWYFDAEERAEAKKKFRNLTRKTESALTED
notes: PHD3, endogenous protein detected with the PHD3 antibody (Abcam ab30782) in HIF1α immunoprecipitates; also called PHD3; PHD

Source: paper PMC9168760, “A novel AMPK activator shows therapeutic potential in hepatocellular carcinoma by suppressing HIF1α‐mediated aerobic glycolysis” (Molecular Oncology, 2022)
